Several values for one entry are separate records, joined by “and”; a condition that tells them apart may be missing. Equal entries are not always repeated. Entries after “also recorded” stand apart in the source; their conditions may differ.

We go through three molecules from patent publication US6482410B1, “Cytotactin derivatives that stimulate attachment and neurite outgrowth, and methods of making same” (The Scripps Research Institute, priority 1994, dated 2002).

The test system of experiment [1] is dorsal root ganglia (DRG) neurons. Nature of the experiment: Two-dimensional neurite outgrowth assay, DRG, 15 hours. It counts as cell-based, chicken. Particulars: 15 hours; for neurite promoting activity on DRG cells: low density; for % Sprouting / Neurite Length: Table 4, DRG; for % Sprouting: neurites greater than one cell diameter; for Neurite Length: per neurite-bearing cell; for Percent Sprouting / Neurite Length (in microns): Table 5, DRG; for Percent Sprouting: six experiments; for Neurite Length (in microns): three experiments. How it is done:
(§1) Dorsal root ganglia (DRG) cells or forebrain neurons were prepared for the cell attachment assays as follows. DRG from day 6 chicken embryos or forebrains from day 7 chicken embryos were dissected into HBSS. The tissue was pelleted by centrifugation and resuspended in CMF-HBSS and incubated at 37° C. for 10 minutes. The tissue was pelleted again and resuspended in CMF-HBSS containing 0.08% trypsin and allowed to trypsinize for 20 minutes at 37° C. An equal volume of DMEM/F12, 10% FCS, 20 ng/ml nerve growth factor (NGF) (for DRG cells only), 10 μg/ml gentamycin (10% medium) was added, and the tissue was pelleted and resuspended in 2 ml of the 10% medium. The cells were triturated with a fire-polished Pasteur pipette for 15 strokes, and the cells were washed and resuspended in 10 ml of 10% medium. DRG cells were plated in a 10 cm tissue culture dish and incubated for 1 hour at 37° C. in 5% CO2, to allow for attachment of contaminating fibroblasts.
(§2) After replating, the cells were harvested, pelleted and washed three times in DMEM/F12, 1% fetal calf serum (FCS), 20 ng/ml NGF (for DRG cells only), 10 μg/ml gentamycin (1% medium), and the number of cells determined using a hemocytometer. The DRG were resuspended to a density of 6×10^5 cells/ml in attachment buffer. The neurons were resuspended to a density of 2×10^4 cells/ml in 1% medium and added to substrates and placed at 37° C., 5% CO2 for 15 hours.
(§3) After the growth period, the dishes were gently rinsed with PBS to remove unbound cells, fixed with 1% glutaraldehyde, and viewed by phase contrast microscopy. Ten to forty cells were analyzed for each substrate. Cells were judged as neurite-bearing if the length of the processes was greater than one cell diameter. All cells with neurites were photographed with a 20× objective and total neurite length per neurite-bearing cell was derived from the photographic prints. Percentage of neuronal sprouting was calculated from at least six experiments. Neurite length was calculated from at least three experiments.
This extensive neurite outgrowth after 40 hours made quantitation of the percentage of neurite-bearing cells and neurite length difficult. To analyze quantitatively the effect of CT/TN fusion proteins on DRG neurite outgrowth, DRG cells were therefore plated at low density on CT/TN or CT/TN fragments and analyzed after 15 hours in culture for the percentage of cells that sprouted neurites greater than one cell diameter and for the everage neurite length per neuron. These conditions enhanced the number of isolated cells and discouraged the cell-cell interactions and fasciculation that occurred in the long-term cultures.
The proteins used in the neurite outgrowth assays are the same as those used in the cell attachment assays. […] In addition, poly-L-lysine was adsorbed to the solid support. […] Any cells adhering to the solid support were examined for sprouting and neurite length as defined herein.
Proteins used in the neurite outgrowth assays were prepared as described in Example 5.A.2.
Dorsal root ganglia (DRG) from day 6 chicken embryos were prepared as described in Example 5.A.4. For the neurite outgrowth assays, the DRG were resuspended at a density of 2×10^4 cells/ml in 1% medium, added to solid support, and placed at 37° C. in 5% CO2 for 15 hours. After the attachment and growth period, the dishes were gently rinsed with PBS to remove unbound cells, fixed with 1% (v/v) glutaraldehyde, and viewed by phase contrast microscopy. Ten to thirty cells were analyzed for each adsorbed protein spot. Cells were judged as neurite-bearing if the length of the processes were greater than one cell diameter. All cells with neurites were photographed with a 40× objective and the total neurite length per neurite-bearing cell was derived from the prints. The percent of cells that were sprouting and the average neurite length was derived from six and three independent experiments, respectively. […]

For a further experiment, the system named is DRG cells. Put plainly: DRG neurite outgrowth, 40 hour culture, morphology. It is filed as cell-based, chicken. Particulars: DRG cells cultured 40 hours. As to the method:
In order to assess the effect to the cell binding regions of CT/TN on the outgrowth of neurites from PNS neurons, DRG cells were cultured for 40 hours on popylysine, CTfn3, CTfn6, CTfg, and CTfn3-CTfn6 mixed substrates. The cultures were then fixed and the cell and neurite morphology was analyzed by phase contrast microscopy. The cells were plated on plastic substrates coated with the same concentrations of CTITN and fusion proteins used in the attachment assay.

For experiment [2], the system named is neurons from chick forebrain. Nature of the experiment: CNS neurite outgrowth, forebrain neurons, 7 hours. It counts as cell-based. Particulars: 7 hour growth period; for % Sprouting: Table 4, FB (forebrain) neurons. How it is done: as §1, §2, §3
To investigate whether CNS neurons could also extend neurites on CT/TN and CT/TN fragments, neurons from chick forebrain were plated at low density on CT/TN, CT/TN fragments and polylysine, and analyzed for neurite outgrowth after a 7 hour growth period (a time period found to be optimal for stable neurite outgrowth from these cells). The lengths of neurites on substrates that supported sprouting were essentially the same for the forebrain neurons and were therefore not quantitated further.

Experiment [3] relates to dorsal root ganglia (DRG) cells. Put plainly: Cell attachment assay, DRG neurons on protein-coated solid support. It counts as cell-based, chicken. The following applies: short-term attachment assay. As to the method:
as §1
After replating, the cells were harvested, pelleted and washed three times in DMEM/F12, 1% fetal calf serum (FCS), 20 ng/ml NGF (for DRG cells only), 10 μg/ml gentamycin (1% medium), and the number of cells determined using a hemocytometer. The DRG were resuspended to a density of 6×10^5 cells/ml in attachment buffer. […]
Chicken fibroblasts, DRG, and solid supports (dishes) coated with CT for use in the cell attachment assays were prepared as described in Examples 5.A.2-4, respectively. […] The number of bound cells was determined using a 10× objective with an eyepiece reticle. The number of cells was determined in four fields for each fusion protein dot as the number of cells bound per […]. […] The number of cells bound for CT was expressed as the average of the twelve measurements±standard deviation […]. […]
Cell attachment assays were performed essentially as follows. […] The cells were then washed in attachment buffer (CMF-HBSS, 10 mM Hepes, 1 mM CaCl2, 1 mM MgCl2, 0.1 mM MnCl2, 2% BSA) three times, counted in a hemocytometer, resuspended to a density of 6×10^5 cells/ml. […]

B1: CTfg: CT:GST fusion protein, entire fibrinogen domain, residues 1570-1810 of SEQ ID NO 4 (protein)
chain: SMRSKMIQTVFTTTGLLYPYPKDCSQALLNGEVTSGLYTIYLNGDRTQPLQVFCDMAEDGGGWIVFLRRQNGKEDFYRNWKNYVAGFGDPKDEFWIGLENLHKISSQGQYELRVDLRDRGETAYAVYDKFSVGDAKTRYRLRVDGYSGTAGDSMTYHNGRSFSTFDKDNDSAITNCALSYKGAFWYKNCHRVNLMGRYGDNNHSQGVNWFHWKGHEYSIQFAEMKLRPSSFRNLEGRRKRA
modifications: left off: a dimerising Fc or GST
Consider B1, for which, in experiment [1] (DRG), the “DRG neurite length versus polylysine” value was “not statistically different; also recorded: statistically indistinguishable”, the “percentage of neurite-bearing DRG cells versus polylysine” value (shortened to “percentage”) was “comparable” and the “neurite promoting activity on DRG cells” value is on record as “did show neurite promoting activity”. In addition, in experiment [1], the “% Sprouting” value turned out to be 8 ± 3%, the “Neurite Length” value amounted to 82 ± 23 microns, the “Percent Sprouting” value is reported as 8 ± 3 and the “Neurite Length (in microns)” value came to 83 ± 23 microns. In addition, the “neurite and cell morphology after 40 hours” value (from here on “neurite and cell morphology”) in the experiment with DRG cells is recorded as “basal level of outgrowth”. Also, in experiment [2], the “forebrain neuron sprouting versus polylysine” value is listed as “not significantly different” and the “% Sprouting” value stood at 2.2 ± 0.5%. Moreover, the “DRG neuron attachment to coated substrate (words)” value (from here on “DRG neuron attachment”) in experiment [3] is “able to support DRG neuron attachment; also recorded: attached well”.

B2: CTfn3: CT:GST fusion protein, fibronectin type III repeat III, residues 774-864 of SEQ ID NO 4 (protein)
chain: LDAPSQIEAKDVTDTTALITWSKPLAEIEGIELTYGPKDVPGDRTTIDLSEDENQYSIGNLRPHTEYEYEVTLISRRGDMESDPAKEVFVT
modifications: left off: a dimerising Fc or GST
Consider B2, for which, in experiment [1] (DRG), the “DRG neurite length versus polylysine” value was “significantly longer”, the “average neurite length relative to poly-L-lysine” value is given as 3 times, the “percentage” value is reported as “comparable; also recorded: the same as on poly-L-lysine” and the “neurite promoting activity on DRG cells” value is “did show neurite promoting activity”. For the same molecule, in experiment [1], the “% Sprouting” value is 12 ± 2%, the “Neurite Length” value was 260 ± 141 microns, the “Percent Sprouting” value stood at 12 ± 2 and the “Neurite Length (in microns)” value came out at 260 ± 141 microns. Moreover, in the experiment on DRG cells, the “neurite and cell morphology” value is “long fasciculated processes”. In experiment [2], the “forebrain cell attachment” value is “did not support forebrain cell attachment”, the “forebrain neuron sprouting versus polylysine” value was “no effect on neurite outgrowth” and the “% Sprouting” value is reported as 0%.

B3: CTfn6: CT:GST fusion protein, fibronectin type III repeat VI, residues 1318-1398 of SEQ ID NO 4 (protein)
chain: VVGSPKGISFSDITENSARVSWTPPRSRVDSYRVSYVPITGGTPNVVTVDGSKTRTKLVKLVPGVDYNVNIISVKGFEESE
modifications: left off: a dimerising Fc or GST
B3: in experiment [1] (DRG), the “DRG neurite length versus polylysine” value is on record as “not statistically different; also recorded: statistically indistinguishable”; the “increase in number of neurite-bearing cells over polylysine” value was 82% and 57%; the “percentage” value is reported as “increase in neurite outgrowth over poly-L-lysine”; the “neurite promoting activity on DRG cells” value is listed as “did show neurite promoting activity”. In experiment [1], the “% Sprouting” value came out at 31 ± 2 %, the “Neurite Length” value is given as 153 ± 124 microns, the “Percent Sprouting” value turned out to be 31 ± 2 and the “Neurite Length (in microns)” value turned out to be 154 ± 124 microns. For the same molecule, in the experiment on DRG cells, the “neurite and cell morphology” value was “moderately long neurites”. In experiment [2], the “forebrain cell attachment” value is given as “promotes attachment”, the “forebrain neuron sprouting versus polylysine” value is “significant increase” and the “% Sprouting” value was determined as 8.7 ± 1.9 %. Besides, the “DRG neuron attachment” value in experiment [3] is “able to support DRG neuron attachment; also recorded: supports both fibroblast and neuronal cell attachment”. For the same molecule, the “DRG neuron attachment” value in experiment [3] (listed as Ctfn6) is “support fibroblast and neuronal cell attachment”.
